We go through six molecules from PMC6168691, “The amino‐terminal domain of Mycobacterium tuberculosis ClpB protein plays a crucial role in its substrate disaggregation activity” (FEBS Open Bio, 2018).

Values joined by “and” are separate entries in the source; they are usually repeats but may differ in a detail not shown here. Equal entries are not always repeated. Where only a bound is given, the exact number is not on record here.

One assay addresses FITC-labelled casein. Kind of assay: fluorescence polarisation.
The target in assay [1] is Mycobacterium tuberculosis DnaK (Mycobacterium tuberculosis) (UniProt P9WMJ9).
Assay [2] has as its target recombinant firefly luciferase (firefly) [luciferase: P08659].
Assay [3] addresses KJE chaperone complex (DnaK, DnaJ1, GrpE of Mycobacterium tuberculosis) (Mycobacterium tuberculosis | Mycobacterium tuberculosis H37Rv) (UniProt P9WMJ9).
In assay [4] the target is malate dehydrogenase from pig heart (pig) (UniProt P00346).
malate dehydrogenase from pig heart (pig), sequence (P00346 25-338): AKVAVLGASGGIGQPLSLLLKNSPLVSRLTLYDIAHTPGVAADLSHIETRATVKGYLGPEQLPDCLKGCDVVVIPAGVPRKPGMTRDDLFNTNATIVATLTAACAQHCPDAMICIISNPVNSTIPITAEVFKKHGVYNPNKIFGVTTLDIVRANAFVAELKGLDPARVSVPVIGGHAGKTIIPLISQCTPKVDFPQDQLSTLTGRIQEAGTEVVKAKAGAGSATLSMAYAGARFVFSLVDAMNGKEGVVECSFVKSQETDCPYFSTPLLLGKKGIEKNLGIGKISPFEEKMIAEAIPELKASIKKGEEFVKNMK
Assay [5] has the same target. The source holds these as a separate data set.
Assay [6] addresses recombinant firefly luciferase (firefly) [luciferase: P08659]. The source holds these as a separate data set.
The target in assay [7] is N-terminally truncated Mycobacterium tuberculosis ClpB (ClpB∆N, residues 149–848) (Mycobacterium tuberculosis H37Rv) (UniProt P9WPD1). In words: SEC; Superdex-200 (1 × 60 cm), buffer A; protein loaded at 6 mg/mL, no nucleotide.
For assay [8] the target is unchanged. Kind of assay: SEC; Superdex-200, buffer A; protein 0.2 mg/mL incubated with 5 mM ATP for 10 min at room temperature before loading.
For assay [9] the target is unchanged. In words: SEC; Superdex-200 (1 × 60 cm), buffer A (50 mM Tris/HCl pH 7.5, 100 mM KCl, 10% glycerol, 1 mM EDTA, 1 mM DTT); protein loaded at 0.2 mg/mL, no nucleotide.
Assay [10] concerns the target T1, Mycobacterium tuberculosis ClpB, full length (residues 1–848) (Mycobacterium tuberculosis H37Rv, UniProt P9WPD1 1-848).
T1 construct: also called Mtb ClpB; WT ClpB
In words: fluorescence polarisation. Particulars: both partners purified.

For assay [11], the target named is T1, Mycobacterium tuberculosis ClpB, full …. Kind of assay: fluorescence polarisation. Particulars: both partners purified. This is another data set of the same source.

recombinant firefly luciferase (firefly) [luciferase: P08659], sequence (P08659 whole entry, the tested form may be a part): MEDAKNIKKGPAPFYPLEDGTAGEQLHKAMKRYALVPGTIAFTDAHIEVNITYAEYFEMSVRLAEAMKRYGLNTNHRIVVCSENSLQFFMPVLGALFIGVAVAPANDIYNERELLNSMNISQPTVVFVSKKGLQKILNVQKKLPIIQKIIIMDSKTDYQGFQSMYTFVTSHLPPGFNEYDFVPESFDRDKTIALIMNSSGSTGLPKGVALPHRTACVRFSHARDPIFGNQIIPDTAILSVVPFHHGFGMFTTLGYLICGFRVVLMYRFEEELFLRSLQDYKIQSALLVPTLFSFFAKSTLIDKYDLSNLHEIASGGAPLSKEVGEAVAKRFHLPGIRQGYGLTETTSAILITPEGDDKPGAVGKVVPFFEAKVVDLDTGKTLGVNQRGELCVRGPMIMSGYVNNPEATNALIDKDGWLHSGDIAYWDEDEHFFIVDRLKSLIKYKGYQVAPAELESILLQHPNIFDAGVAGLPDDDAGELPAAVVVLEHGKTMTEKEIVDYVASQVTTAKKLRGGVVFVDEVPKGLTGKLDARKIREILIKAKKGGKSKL

In the assay with FITC-labelled casein, “Mycobacterium tuberculosis ClpB F140T (from UniProt P9WPD1 1-848) (natural protein)” showed a Kd of 24 µM.
The same measure, in the same setting: next, “Mycobacterium tuberculosis ClpB L101Q (from UniProt P9WPD1 1-848) (natural protein)”: 5.3 µM; “Mycobacterium tuberculosis ClpB L97D (from UniProt P9WPD1 1-848) (natural protein)”: 10 µM.
As for “N-terminally truncated Mycobacterium tuberculosis ClpB (ClpB∆N, residues 149–848) (from UniProt P9WPD1 149-848) (domain or fragment)”, in [1], the ATPase activity of ClpB∆N left at 1 mM ADP (5 mM ATP) with 1 μM DnaK turned out to be 17%. In addition, the prevention of heat aggregation of luciferase by the highest concentration of ClpB∆N in the absence of ATP in assay [2] stood at 24%. This molecule had a reactivation of small aggregates of MDH by 1 μM ClpB∆N with 1 μM KJE complex (about 25% by ClpB∆N alone, 3.6% by KJE alone) in assay [3] of 32%. This molecule also displayed a reactivation of small aggregates of MDH by 1 μM ClpB∆N alone, percent of native MDH activity in assay [4] of 25%. In assay [5], this molecule showed a drop of reactivation activity of ClpB∆N alone on large against small aggregates of MDH of 80%. The drop of reactivation activity of ClpB∆N with KJE on large against small aggregates of MDH in assay [5] is 48%. Moreover, the reactivation of large aggregates of luciferase by ClpB∆N against ClpB, alone and with KJE (luminescence) in assay [6] is more than 20%. This molecule yielded a dissociation constant (Kd) with FITC-labelled casein of 6.94 µM. Besides, the stoichiometry N is 6 and 4 in assay [7]; 6 in assay [8]; 6 and 2 in [9].
As to “Mycobacterium tuberculosis ClpB V141K (from UniProt P9WPD1 1-848) (natural protein)”, the dissociation constant Kd with FITC-labelled casein stood at 10 µM.

B1: FITC-labelled casein (natural protein)
chain: RPKHPIKHQGLPQEVLNENLLRFFVAPFPEVFGKEKVNELSKDIGSESTEDQAMEDIKQMEAESISSSEEIVPNSVEQKHIQKEDVPSERYLGYLEQLLRLKKYKVPQLEIVPNSAEERLHSMKEGIHAQQKEPMIGVNQELAYFYPELFRQFYQLDAYPSGAWYYVPLGTQYTDAPSFSDIPNPIGSENSEKTTMPLW
modifications: FITC label
B1: the values for the dissociation constant Kd in assay [10] and in assay [11] were 0.88 ± 0.47 µM and 0.9 µM, respectively.
